# Results as given in the supplement of paper PMC11908140.
# B1: library; numbered along this chain (parent)
# chain: MRKPRAAVGSGHRKQAASQEGRQKHAKNNSQAKPSACDGLARQPEEVVLQASVSSYHLFRDVAEVTAFRGSLLSWYDQEKRDLPWRRRAEDEMDLDRRAYAVWVSEVMLQQTQVATVINYYTGWMQKWPTLQDLASASLEEVNQLWAGLGYYSRGRRLQEGARKVVEELGGHMPRTAETLQQLLPGVGRYTAGAIASIAFGQATGVVDGNVARVLCRVRAIGADPSSTLVSQQLWGLAQQLVDPARPGDFNQAAMELGATVCTPQRPLCSQCPVESLCRARQRVEQEQLLASGSLSGSPDVEECAPNTGQCHLCLPPSEPWDQTLGVVNFPRKASRKPPREESSATCVLEQPGALGAQILLVQRPNSGLLAGLWEFPSVTWEPSEQLQRKALLQELQRWAGPLPATHLRHLGEVVHTFSHIKLTYQVYGLALEGQTPVTTVPPGARWLTQEEFHTAAVSTAMKKVFRVYQGQQPGTCMGSKRSQVSSPCSRKKPRMGQQVLDNFFRSHISTDAHSLNSAAQ
# Variants of: B1
# Experiment: 8OG:A repair function score (normalized; synonymous = 0, nonsense = -1) (normalized log-likelihood score); higher = more repair activity (WT-like)
# Conditions: with 8OG:A DNA repair reporter (GFP) in HEK-293 MUTYH KO cells
# How it was run: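 After 72 h, viable mCherry+ cells were split into GFP+ (repair) and GFP− bins in three replicates per tile. These cells were MUTYH knockout HEK-293 cells holding lentiviral MUTYH cDNA NNN codon-scan libraries, kept in 10 pg/ml doxycycline and co-transfected with mCherry plus an 8OG:A GFP repair reporter. Sequencing of tile amplicons gave per-tile Rosace fitness scores, normalized into a repair function score anchored on synonymous and nonsense distributions. Synonymous medians were fixed at 0, nonsense at -1, and variants under 300 counts per million at the start were removed.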
# 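Further: cells sorted at 72 h after reporter transfection.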
row,Variant,8OG:A repair function score
1,MRKPRAAVGSGHRKQAASQEGRQKHAKNNSQAKPSACDGLARQPEEVVLQASVSSYHLFRDVAEVTAFRGSLLSWYDQEKRDLPWRRRAEDEMDLDRRAYAVWVSEVMLQQTQVATVINYYTGWMQKWPTLQDLASASLEEVNQLWAGLGYYSRGRRLQEGARKVVEELGGHMPRTAETLQQLLPGVGRYTAGAIASIAFGQATGVVDGNVARVLCRVRAIGADPSSTLVSQQLWGLAQQLVDPARPGDFNQAAMELGATVCTPQRPLCSQCPVESLCRARQRVEQEQLLASGSLSGSPDVEECAPNTGQCHLCLPPSEPWDQTLGVVNFPRKASRKPPREESSATCVLEQPGALGAQILLVQRPNSGLLAGLWEFPSVTWEQSEQLQRKALLQELQRWAGPLPATHLRHLGEVVHTFSHIKLTYQVYGLALEGQTPVTTVPPGARWLTQEEFHTAAVSTAMKKVFRVYQGQQPGTCMGSKRSQVSSPCSRKKPRMGQQVLDNFFRSHISTDAHSLNSAAQ [P383Q],0.0121
2,MRKPRAAVGSGHRKQAASQEGRQKHAKNNSQAKPSACDGLARQPEEVVLQASVSSYHLFRDVAEVTAFRGSLLSWYDQEKRDLPWRRRAEDEMDLDRRAYAVWVSEVMLQQTQVATVINYYTGWMQKWPTLQDLASASLEEVNQLWAGLGYYSRGRRLQEGARKVVEELGGHMPRTAETLQQLLPGVGRYTAGAIASIAFGQATGVVDGNVARVLCRVRAIGADPSSTLVSQQLWGLAQQLVDPARPGDFNQAAMELGATVCTPQRPLCSQCPVESLCRARQRVEQEQLLASGSLSGSPDVEECAPNTGQCHLCLPPSEPWDQTLGVVNFPRKASRKPPREESSATCVLEQPGALGAQILLVQRPNSGLLAGLWEFPSVTWERSEQLQRKALLQELQRWAGPLPATHLRHLGEVVHTFSHIKLTYQVYGLALEGQTPVTTVPPGARWLTQEEFHTAAVSTAMKKVFRVYQGQQPGTCMGSKRSQVSSPCSRKKPRMGQQVLDNFFRSHISTDAHSLNSAAQ [P383R],0.0404
3,MRKPRAAVGSGHRKQAASQEGRQKHAKNNSQAKPSACDGLARQPEEVVLQASVSSYHLFRDVAEVTAFRGSLLSWYDQEKRDLPWRRRAEDEMDLDRRAYAVWVSEVMLQQTQVATVINYYTGWMQKWPTLQDLASASLEEVNQLWAGLGYYSRGRRLQEGARKVVEELGGHMPRTAETLQQLLPGVGRYTAGAIASIAFGQATGVVDGNVARVLCRVRAIGADPSSTLVSQQLWGLAQQLVDPARPGDFNQAAMELGATVCTPQRPLCSQCPVESLCRARQRVEQEQLLASGSLSGSPDVEECAPNTGQCHLCLPPSEPWDQTLGVVNFPRKASRKPPREESSATCVLEQPGALGAQILLVQRPNSGLLAGLWEFPSVTWEVSEQLQRKALLQELQRWAGPLPATHLRHLGEVVHTFSHIKLTYQVYGLALEGQTPVTTVPPGARWLTQEEFHTAAVSTAMKKVFRVYQGQQPGTCMGSKRSQVSSPCSRKKPRMGQQVLDNFFRSHISTDAHSLNSAAQ [P383V],-0.163
4,MRKPRAAVGSGHRKQAASQEGRQKHAKNNSQAKPSACDGLARQPEEVVLQASVSSYHLFRDVAEVTAFRGSLLSWYDQEKRDLPWRRRAEDEMDLDRRAYAVWVSEVMLQQTQVATVINYYTGWMQKWPTLQDLASASLEEVNQLWAGLGYYSRGRRLQEGARKVVEELGGHMPRTAETLQQLLPGVGRYTAGAIASIAFGQATGVVDGNVARVLCRVRAIGADPSSTLVSQQLWGLAQQLVDPARPGDFNQAAMELGATVCTPQRPLCSQCPVESLCRARQRVEQEQLLASGSLSGSPDVEECAPNTGQCHLCLPPSEPWDQTLGVVNFPRKASRKPPREESSATCVLEQPGALGAQILLVQRPNSGLLAGLWEFPSVTWEWSEQLQRKALLQELQRWAGPLPATHLRHLGEVVHTFSHIKLTYQVYGLALEGQTPVTTVPPGARWLTQEEFHTAAVSTAMKKVFRVYQGQQPGTCMGSKRSQVSSPCSRKKPRMGQQVLDNFFRSHISTDAHSLNSAAQ [P383W],-0.185
5,MRKPRAAVGSGHRKQAASQEGRQKHAKNNSQAKPSACDGLARQPEEVVLQASVSSYHLFRDVAEVTAFRGSLLSWYDQEKRDLPWRRRAEDEMDLDRRAYAVWVSEVMLQQTQVATVINYYTGWMQKWPTLQDLASASLEEVNQLWAGLGYYSRGRRLQEGARKVVEELGGHMPRTAETLQQLLPGVGRYTAGAIASIAFGQATGVVDGNVARVLCRVRAIGADPSSTLVSQQLWGLAQQLVDPARPGDFNQAAMELGATVCTPQRPLCSQCPVESLCRARQRVEQEQLLASGSLSGSPDVEECAPNTGQCHLCLPPSEPWDQTLGVVNFPRKASRKPPREESSATCVLEQPGALGAQILLVQRPNSGLLAGLWEFPSVTWETSEQLQRKALLQELQRWAGPLPATHLRHLGEVVHTFSHIKLTYQVYGLALEGQTPVTTVPPGARWLTQEEFHTAAVSTAMKKVFRVYQGQQPGTCMGSKRSQVSSPCSRKKPRMGQQVLDNFFRSHISTDAHSLNSAAQ [P383T],0.0211
6,MRKPRAAVGSGHRKQAASQEGRQKHAKNNSQAKPSACDGLARQPEEVVLQASVSSYHLFRDVAEVTAFRGSLLSWYDQEKRDLPWRRRAEDEMDLDRRAYAVWVSEVMLQQTQVATVINYYTGWMQKWPTLQDLASASLEEVNQLWAGLGYYSRGRRLQEGARKVVEELGGHMPRTAETLQQLLPGVGRYTAGAIASIAFGQATGVVDGNVARVLCRVRAIGADPSSTLVSQQLWGLAQQLVDPARPGDFNQAAMELGATVCTPQRPLCSQCPVESLCRARQRVEQEQLLASGSLSGSPDVEECAPNTGQCHLCLPPSEPWDQTLGVVNFPRKASRKPPREESSATCVLEQPGALGAQILLVQRPNSGLLAGLWEFPSVTWENSEQLQRKALLQELQRWAGPLPATHLRHLGEVVHTFSHIKLTYQVYGLALEGQTPVTTVPPGARWLTQEEFHTAAVSTAMKKVFRVYQGQQPGTCMGSKRSQVSSPCSRKKPRMGQQVLDNFFRSHISTDAHSLNSAAQ [P383N],-0.294
7,MRKPRAAVGSGHRKQAASQEGRQKHAKNNSQAKPSACDGLARQPEEVVLQASVSSYHLFRDVAEVTAFRGSLLSWYDQEKRDLPWRRRAEDEMDLDRRAYAVWVSEVMLQQTQVATVINYYTGWMQKWPTLQDLASASLEEVNQLWAGLGYYSRGRRLQEGARKVVEELGGHMPRTAETLQQLLPGVGRYTAGAIASIAFGQATGVVDGNVARVLCRVRAIGADPSSTLVSQQLWGLAQQLVDPARPGDFNQAAMELGATVCTPQRPLCSQCPVESLCRARQRVEQEQLLASGSLSGSPDVEECAPNTGQCHLCLPPSEPWDQTLGVVNFPRKASRKPPREESSATCVLEQPGALGAQILLVQRPNSGLLAGLWEFPSVTWEMSEQLQRKALLQELQRWAGPLPATHLRHLGEVVHTFSHIKLTYQVYGLALEGQTPVTTVPPGARWLTQEEFHTAAVSTAMKKVFRVYQGQQPGTCMGSKRSQVSSPCSRKKPRMGQQVLDNFFRSHISTDAHSLNSAAQ [P383M],-0.333
8,MRKPRAAVGSGHRKQAASQEGRQKHAKNNSQAKPSACDGLARQPEEVVLQASVSSYHLFRDVAEVTAFRGSLLSWYDQEKRDLPWRRRAEDEMDLDRRAYAVWVSEVMLQQTQVATVINYYTGWMQKWPTLQDLASASLEEVNQLWAGLGYYSRGRRLQEGARKVVEELGGHMPRTAETLQQLLPGVGRYTAGAIASIAFGQATGVVDGNVARVLCRVRAIGADPSSTLVSQQLWGLAQQLVDPARPGDFNQAAMELGATVCTPQRPLCSQCPVESLCRARQRVEQEQLLASGSLSGSPDVEECAPNTGQCHLCLPPSEPWDQTLGVVNFPRKASRKPPREESSATCVLEQPGALGAQILLVQRPNSGLLAGLWEFPSVTWELSEQLQRKALLQELQRWAGPLPATHLRHLGEVVHTFSHIKLTYQVYGLALEGQTPVTTVPPGARWLTQEEFHTAAVSTAMKKVFRVYQGQQPGTCMGSKRSQVSSPCSRKKPRMGQQVLDNFFRSHISTDAHSLNSAAQ [P383L],-0.0053
9,MRKPRAAVGSGHRKQAASQEGRQKHAKNNSQAKPSACDGLARQPEEVVLQASVSSYHLFRDVAEVTAFRGSLLSWYDQEKRDLPWRRRAEDEMDLDRRAYAVWVSEVMLQQTQVATVINYYTGWMQKWPTLQDLASASLEEVNQLWAGLGYYSRGRRLQEGARKVVEELGGHMPRTAETLQQLLPGVGRYTAGAIASIAFGQATGVVDGNVARVLCRVRAIGADPSSTLVSQQLWGLAQQLVDPARPGDFNQAAMELGATVCTPQRPLCSQCPVESLCRARQRVEQEQLLASGSLSGSPDVEECAPNTGQCHLCLPPSEPWDQTLGVVNFPRKASRKPPREESSATCVLEQPGALGAQILLVQRPNSGLLAGLWEFPSVTWESSEQLQRKALLQELQRWAGPLPATHLRHLGEVVHTFSHIKLTYQVYGLALEGQTPVTTVPPGARWLTQEEFHTAAVSTAMKKVFRVYQGQQPGTCMGSKRSQVSSPCSRKKPRMGQQVLDNFFRSHISTDAHSLNSAAQ [P383S],-0.0364
10,MRKPRAAVGSGHRKQAASQEGRQKHAKNNSQAKPSACDGLARQPEEVVLQASVSSYHLFRDVAEVTAFRGSLLSWYDQEKRDLPWRRRAEDEMDLDRRAYAVWVSEVMLQQTQVATVINYYTGWMQKWPTLQDLASASLEEVNQLWAGLGYYSRGRRLQEGARKVVEELGGHMPRTAETLQQLLPGVGRYTAGAIASIAFGQATGVVDGNVARVLCRVRAIGADPSSTLVSQQLWGLAQQLVDPARPGDFNQAAMELGATVCTPQRPLCSQCPVESLCRARQRVEQEQLLASGSLSGSPDVEECAPNTGQCHLCLPPSEPWDQTLGVVNFPRKASRKPPREESSATCVLEQPGALGAQILLVQRPNSGLLAGLWEFPSVTWEYSEQLQRKALLQELQRWAGPLPATHLRHLGEVVHTFSHIKLTYQVYGLALEGQTPVTTVPPGARWLTQEEFHTAAVSTAMKKVFRVYQGQQPGTCMGSKRSQVSSPCSRKKPRMGQQVLDNFFRSHISTDAHSLNSAAQ [P383Y],-0.0911
11,MRKPRAAVGSGHRKQAASQEGRQKHAKNNSQAKPSACDGLARQPEEVVLQASVSSYHLFRDVAEVTAFRGSLLSWYDQEKRDLPWRRRAEDEMDLDRRAYAVWVSEVMLQQTQVATVINYYTGWMQKWPTLQDLASASLEEVNQLWAGLGYYSRGRRLQEGARKVVEELGGHMPRTAETLQQLLPGVGRYTAGAIASIAFGQATGVVDGNVARVLCRVRAIGADPSSTLVSQQLWGLAQQLVDPARPGDFNQAAMELGATVCTPQRPLCSQCPVESLCRARQRVEQEQLLASGSLSGSPDVEECAPNTGQCHLCLPPSEPWDQTLGVVNFPRKASRKPPREESSATCVLEQPGALGAQILLVQRPNSGLLAGLWEFPSVTWEPAEQLQRKALLQELQRWAGPLPATHLRHLGEVVHTFSHIKLTYQVYGLALEGQTPVTTVPPGARWLTQEEFHTAAVSTAMKKVFRVYQGQQPGTCMGSKRSQVSSPCSRKKPRMGQQVLDNFFRSHISTDAHSLNSAAQ [S384A],0.0362
12,MRKPRAAVGSGHRKQAASQEGRQKHAKNNSQAKPSACDGLARQPEEVVLQASVSSYHLFRDVAEVTAFRGSLLSWYDQEKRDLPWRRRAEDEMDLDRRAYAVWVSEVMLQQTQVATVINYYTGWMQKWPTLQDLASASLEEVNQLWAGLGYYSRGRRLQEGARKVVEELGGHMPRTAETLQQLLPGVGRYTAGAIASIAFGQATGVVDGNVARVLCRVRAIGADPSSTLVSQQLWGLAQQLVDPARPGDFNQAAMELGATVCTPQRPLCSQCPVESLCRARQRVEQEQLLASGSLSGSPDVEECAPNTGQCHLCLPPSEPWDQTLGVVNFPRKASRKPPREESSATCVLEQPGALGAQILLVQRPNSGLLAGLWEFPSVTWEPCEQLQRKALLQELQRWAGPLPATHLRHLGEVVHTFSHIKLTYQVYGLALEGQTPVTTVPPGARWLTQEEFHTAAVSTAMKKVFRVYQGQQPGTCMGSKRSQVSSPCSRKKPRMGQQVLDNFFRSHISTDAHSLNSAAQ [S384C],-0.202
